In the test the target is mS105 (Chlamydomonas reinhardtii (endogenous in strain CC-4351)). The test can be described thus: cryo-EM structure.

mS105 (natural protein): the stoichiometry N came to 3.

As usually defined, the stoichiometry N is a count of units in the complex or per binding partner.
